Laboratory results taken from US20240150417A1.

Molecular target: human transferrin receptor (human) (UniProt P02786)
Experiment: MST (Monolith NT.115), dye-labelled protein, receptor titrated

Chain of human transferrin receptor (human) (P02786 89-760 limits assumed): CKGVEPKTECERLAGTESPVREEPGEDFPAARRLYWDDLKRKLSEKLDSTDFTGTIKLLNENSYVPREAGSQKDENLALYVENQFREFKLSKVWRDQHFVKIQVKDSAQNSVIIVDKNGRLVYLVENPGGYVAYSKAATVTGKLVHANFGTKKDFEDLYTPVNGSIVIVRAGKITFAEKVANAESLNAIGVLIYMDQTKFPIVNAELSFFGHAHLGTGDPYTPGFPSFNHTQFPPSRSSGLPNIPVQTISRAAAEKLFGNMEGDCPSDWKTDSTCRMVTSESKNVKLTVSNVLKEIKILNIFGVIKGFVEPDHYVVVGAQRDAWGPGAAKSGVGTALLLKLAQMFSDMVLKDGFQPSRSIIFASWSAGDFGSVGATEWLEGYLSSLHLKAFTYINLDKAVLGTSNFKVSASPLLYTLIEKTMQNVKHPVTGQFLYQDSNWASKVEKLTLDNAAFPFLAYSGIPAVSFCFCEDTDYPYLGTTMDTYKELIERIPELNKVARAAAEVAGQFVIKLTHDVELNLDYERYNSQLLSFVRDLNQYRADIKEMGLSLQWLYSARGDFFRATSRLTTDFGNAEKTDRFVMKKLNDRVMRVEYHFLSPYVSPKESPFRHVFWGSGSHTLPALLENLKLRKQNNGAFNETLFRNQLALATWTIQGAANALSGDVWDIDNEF

| Substance | Kd |
| --- | --- |
| AB-AH1-huHF (from UniProt P02794 1-183) | 10.9 nM |
| DE-AH1-huHF (from UniProt P02794 1-183) | 6.11 nM |
| CD-gp100-huHF (from UniProt P02794 1-183) | 4.89 nM |
| AB-gp100-huHF (from UniProt P02794 1-183) | 29.7 nM |
| BC-AH1-huHF (from UniProt P02794 1-183) | 107 nM |
| CD-AH1-huHF (from UniProt P02794 1-183) | 3.45 nM |
